For one assay, the target named is T1, human TLR2 (human, UniProt O60603 21-784).
T1 construct: whole, on cells; Presented on HEK-Blue hTLR2 reporter cells; also called hTLR2
Nature of the assay: inferred from HEK-Blue hTLR2 reporter cells (QuantiBlue OD and IL-8 ELISA). In general terms: ELISA stands for enzyme-linked immunosorbent assay.

Another assay concerns the target T2, human TLR4 (human, UniProt O00206 24-839).
T2 construct: whole, on cells; Presented on HEK-hTLR4 cells; also called hTLR4
As to the kind of experiment: inferred from IL-8 secretion (ELISA) of HEK-hTLR4 cells, 1 µM.

T2 sequence (O00206 24-839): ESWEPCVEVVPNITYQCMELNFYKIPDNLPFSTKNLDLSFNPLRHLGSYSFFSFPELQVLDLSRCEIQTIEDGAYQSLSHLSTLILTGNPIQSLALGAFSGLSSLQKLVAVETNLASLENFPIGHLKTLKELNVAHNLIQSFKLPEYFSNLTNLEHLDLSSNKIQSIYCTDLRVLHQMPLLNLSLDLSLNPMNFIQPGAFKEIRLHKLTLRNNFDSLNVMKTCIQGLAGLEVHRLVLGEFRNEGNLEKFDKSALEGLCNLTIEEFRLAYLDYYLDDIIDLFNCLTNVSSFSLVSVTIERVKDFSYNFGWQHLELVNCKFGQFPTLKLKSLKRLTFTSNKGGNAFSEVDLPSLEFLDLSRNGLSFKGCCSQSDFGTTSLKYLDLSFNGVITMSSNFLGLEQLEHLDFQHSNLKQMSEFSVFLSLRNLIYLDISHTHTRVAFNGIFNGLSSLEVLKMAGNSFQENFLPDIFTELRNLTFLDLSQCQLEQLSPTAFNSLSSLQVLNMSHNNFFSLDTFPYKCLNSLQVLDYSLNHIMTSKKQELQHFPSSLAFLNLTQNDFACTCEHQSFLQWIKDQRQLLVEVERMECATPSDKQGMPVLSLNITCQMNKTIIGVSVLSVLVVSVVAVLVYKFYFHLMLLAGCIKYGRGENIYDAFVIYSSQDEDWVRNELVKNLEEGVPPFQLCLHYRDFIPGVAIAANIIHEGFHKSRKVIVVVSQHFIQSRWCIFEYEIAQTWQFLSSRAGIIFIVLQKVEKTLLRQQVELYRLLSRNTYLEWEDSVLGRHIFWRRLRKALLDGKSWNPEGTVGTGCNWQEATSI
T1 sequence (O60603 21-784): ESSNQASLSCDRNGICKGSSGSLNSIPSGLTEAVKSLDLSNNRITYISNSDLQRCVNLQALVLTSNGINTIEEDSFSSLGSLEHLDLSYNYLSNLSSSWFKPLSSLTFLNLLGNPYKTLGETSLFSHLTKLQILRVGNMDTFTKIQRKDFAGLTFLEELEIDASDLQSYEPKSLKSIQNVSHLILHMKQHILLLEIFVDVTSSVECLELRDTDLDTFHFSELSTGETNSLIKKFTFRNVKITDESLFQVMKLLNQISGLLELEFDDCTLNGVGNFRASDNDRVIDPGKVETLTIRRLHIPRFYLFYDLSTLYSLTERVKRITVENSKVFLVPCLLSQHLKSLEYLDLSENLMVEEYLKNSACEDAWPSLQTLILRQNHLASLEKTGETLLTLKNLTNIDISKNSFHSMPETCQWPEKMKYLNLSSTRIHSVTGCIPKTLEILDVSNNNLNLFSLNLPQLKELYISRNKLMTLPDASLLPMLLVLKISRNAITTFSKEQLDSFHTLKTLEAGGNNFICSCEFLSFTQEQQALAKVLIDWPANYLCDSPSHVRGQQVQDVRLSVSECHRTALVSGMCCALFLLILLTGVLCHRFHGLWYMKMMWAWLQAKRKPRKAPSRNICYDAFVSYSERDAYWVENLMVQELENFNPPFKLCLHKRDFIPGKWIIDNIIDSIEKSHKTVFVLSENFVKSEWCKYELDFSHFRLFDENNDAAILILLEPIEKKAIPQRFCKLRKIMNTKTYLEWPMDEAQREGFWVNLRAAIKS

B1: Z13Mad5Anaxa (other)
chain: MHHHHHHKRYKNRVASRKSRAKFKQLLQHYREVAAAKSSENDRLRLLLKESLKISQAVHAAHAEINEAGREVVGVGALKVPRNQDWLGVPRFAKFASFEAQGALANIAVDKANLDVEQLESIINFEKLTEWTGSSTVHEILCKLSLEGDHSTPPSAYGSVKPYTNFDAE
notes: Recombinant fusion protein with N-terminal MHHHHHH; 18973 Da; also called fusion protein of cell-penetrating peptide Z13, MAD5 cargo and TLR peptide agonist Anaxa (C-terminal)
Take B1: the binding result in the assay with human TLR2 and in the assay with human TLR4 was “binds” throughout.

B2: AnaxaZ13Mad5 (other)
chain: MHHHHHHSTVHEILCKLSLEGDHSTPPSAYGSVKPYTNFDAEKRYKNRVASRKSRAKFKQLLQHYREVAAAKSSENDRLRLLLKESLKISQAVHAAHAEINEAGREVVGVGALKVPRNQDWLGVPRFAKFASFEAQGALANIAVDKANLDVEQLESIINFEKLTEWTGS
notes: Recombinant fusion protein with N-terminal MHHHHHH; 18973 Da; also called AnaxZ13Mad5; fusion protein with Anaxa at the N-terminal position, Z13 and MAD5 cargo
Take B2: the binding result with human TLR2 was “binds”.

B3: EDAZ13Mad5 (other)
chain: MHHHHHHNIDRPKGLAFTDVDVDSIKIAWESPQGQVSRYRVTYSSPEDGIRELFPAPDGEDDTAELQGLRPGSEYTVSVVALHDDMESQPLIGIQSTKRYKNRVASRKSRAKFKQLLQHYREVAAAKSSENDRLRLLLKESLKISQAVHAAHAEINEAGREVVGVGALKVPRNQDWLGVPRFAKFASFEAQGALANIAVDKANLDVEQLESIINFEKLTEWTGS
notes: Recombinant fusion protein with N-terminal MHHHHHH; 25,057 Da; also called fusion protein of TLR4 peptide agonist EDA (N-terminal), Z13 and MAD5 cargo
For B3, the binding result with human TLR4 is on record as “binds”.

Values taken from patent US20190255165A1 (AMAL THERAPEUTICS, published 2019).
